US20120301469A1 (Ablynx, published 2012)

Key:
[1] = target: T1, protein F of hRSV strain Long, on virus (inactivated hRSV Long, Hytest #8RSV79; RSV Long LM-2, ATCC VR-26) (human respiratory syncytial virus, …, UniProt P12568 26-574); assay: cell-based or functional assay
[2] = target: T2, protein F of hRSV strain B-1 (on RSV B-1-infected Hep2 cells and on virus) (human respiratory syncytial virus, …, UniProt P13843 26-574); assay: cell-based or functional assay
[3] = target: T1, protein F of hRSV strain Long, on virus …; assay: cell-based or functional assay; remark: listed apart in the source
[4] = target: T2, protein F of hRSV strain B-1 (on RSV …); assay: cell-based or functional assay; remark: listed apart in the source
[5] = target: T3, hRSV FTM-NN (membrane anchorless form of the Long fusion protein, 70 kDa) (human respiratory syncytial virus, …, UniProt P12568 26-524); assay: ELISA on immobilized FTM-NN, periplasmic extract 1:10
T3 construct: also called FTM-NN (Long); hRSV FTM-protein

[6] = target: T3, hRSV FTM-NN (membrane anchorless form …); assay: SPR (Biacore), FTM-NN amine-coupled on CM5 chip, 1:1 Langmuir fit
[7] = target: T2, protein F of hRSV strain B-1 (on RSV …); assay: cell ELISA on RSV B-1-infected Hep2 cells, periplasmic extract 1:50
[8] = target: T2, protein F of hRSV strain B-1 (on RSV …); assay: cell ELISA on RSV B-1-infected Hep2 cells, periplasmic extract 1:200
[9] = target: T3, hRSV FTM-NN (membrane anchorless form …); assay: competition ELISA on FTM-NN, competitor Synagis Mab, purified Nanobody

Binder | RSV micro-neutralization on Long, IC50 [1] | micro-neutralization of RSV B-1 [2] | Neutralization Long IC50 [3] | Neutralization B-1 IC50 [4] | Binding Long 1:10 PE (Fold blanc) [5] | Kd [6] | koff [6] | kon [6] | Binding Hep2-B-1 (% control) 1:50 PE [7] | Binding Hep2-B-1 (% control) 1:200 PE [8] | IC50 [9]
Nanobody 7B2 (VHH, also called PMP7B2; PRSV7B2) VHH: EVQLVESGGGLVQAGDSLRLSCAASGRTFSSYAMGWFRQAPGKEREFVAAISWSDGSTYYADSVKGRFTISRDNAKNTVYLQMNSLKPEDTAVYYCAADLTSTNPGSYIYIWAYDYWGQGTQVTVSS | 88 nM | > 10 µM | 108 nM | > 10000 nM | 4.7 fold blanc | 1.5 nM | 0.00049 s⁻¹ | 340000 M⁻¹ s⁻¹ | 61 % control | 41 % control | 1.93 nM
Nanobody 1G3 (VHH, also called PMP1G3; PRSV1G3) VHH: EVQLVESGGGLVQAGGSLRLSCEASGRTYSRYGMGWFRQAPGKEREFVAAVSRLSGPRTVYADSVKGRFTISRDNAENTVYLQMNSLKPEDTAVYTCAAELTNRNSGAYYYAWAYDYWGQGTQVTVSS | – | > 10 µM | 413 nM | > 10000 nM | 3.4 fold blanc | – | – | – | 52 % control | 45 % control | 72.5 nM
